The assay deals with T1, Cry4Ba toxin (Cry4BRA mutant, R203 replaced by A) of Bacillus thuringiensis israelensis (Bacillus thuringiensis israelensis, UniProt P05519 51-641).
T1 construct: domain: ~66 kDa toxin mosquitocidal fragment; also called labeled Cry4Ba
T1 sequence: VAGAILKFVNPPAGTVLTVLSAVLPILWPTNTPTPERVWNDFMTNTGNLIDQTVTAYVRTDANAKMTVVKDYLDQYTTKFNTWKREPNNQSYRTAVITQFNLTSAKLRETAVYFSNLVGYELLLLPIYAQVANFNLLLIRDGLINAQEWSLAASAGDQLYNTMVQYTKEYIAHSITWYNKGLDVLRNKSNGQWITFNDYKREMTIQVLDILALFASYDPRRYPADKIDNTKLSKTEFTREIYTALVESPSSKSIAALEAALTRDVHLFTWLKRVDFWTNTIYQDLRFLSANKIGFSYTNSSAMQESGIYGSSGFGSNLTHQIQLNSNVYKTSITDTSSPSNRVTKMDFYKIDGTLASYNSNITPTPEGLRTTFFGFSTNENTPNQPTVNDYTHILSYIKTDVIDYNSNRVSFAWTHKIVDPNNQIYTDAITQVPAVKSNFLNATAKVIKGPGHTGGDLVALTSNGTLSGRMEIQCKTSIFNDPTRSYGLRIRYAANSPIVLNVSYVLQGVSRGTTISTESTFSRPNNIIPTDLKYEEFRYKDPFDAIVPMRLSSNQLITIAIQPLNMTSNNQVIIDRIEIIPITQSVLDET
As to the kind of experiment: microplate ELISA, Cry4Ba coated, biotinylated fragment titrated, one site saturation fit. In general terms: In an ELISA, binding on a coated surface is turned into a signal by an enzyme label.

B1: CR11-MPED peptide of AgCad1 (amino acids 1358G to 1569A), expressed in E. coli (peptide)
chain: GITTNDRVPKALFRVYAEDPDEDEIIRYELVNGTAVGENLQTDGLPFRLHPDSGELTLTSKVQPNQNGYYQLTLIAFDRDDTHNDTVPAKVYIVSESNRVTFVFLNSVEEIDQPDVRKFLAQELTGAYEMECNIDDIDQTTASDGRQAGGSSSALTDVRTHFIQDNQAVEASRIQQRSSNRTFVTVLKTTLRTRGLSLQDVPPLATEALTEA
notes: Biotinylated with sulfo-NHS-PC-biotin for the microplate assay; also called AgCad CR11-MPED; AgCad-CR11-MPED
For orientation: Kd means the equilibrium constant for the complex coming apart. A higher Kd goes with a looser complex. As to B1, binding was characterised by a dissociation constant (Kd) of 393 nM.

B2: CR9-11 fragment of AgCad1, expressed in E. coli (peptide)
chain: GSPLPKFEAIDDDGGIYGDVTFSLTSTNDGEQDHEVFRVDKVDNKTGLLVLENSLAVQPFPKNYSITVIARDGGDRQSEAAIHVVFINMTGEPAFLEPTFDTDFTENEEGRDERRQLPFAEDPKNAGLPPGAETNVYYFIDKTYGNASHLFQLDRVSNVLQLAQLLDREEIPTPEIRIVATNNENSPPDTVLESSPSLLVVRIKVNDVNDNPPVFQQRLYAAGITTNDRVPKALFRVYAEDPDEDEIIRYELVNGTAVGENLQTDGLPFRLHPDSGELTLTSKVQPNQNGYYQLTLIAFDRDDTHNDTVPAKVYIVSESNRVTFVF
notes: Biotinylated for the microplate assay; also called AgCad CR9-11; AgCad-CR9-11
Molecule B2 came in with a Kd of 173 nM.
